This is an account of results in paper PMC3686486.

For experiment [1], the target named is Bacillus thuringiensis subsp. israelensis Cry11Aa toxin (Bacillus thuringiensis subsp. israelensis) (UniProt P21256). The experiment in a line: ELISA. In general terms: In an ELISA, binding on a coated surface is turned into a signal by an enzyme label.
Experiment [2] concerns the target Bacillus thuringiensis subsp. israelensis Cry4Ba toxin (Bacillus thuringiensis subsp. israelensis). Briefly: ELISA.
In experiment [3] the target is Bacillus thuringiensis subsp. israelensis Cry11Aa toxin (Bacillus thuringiensis subsp. israelensis) (UniProt P21256). The experiment in a line: SPR. Background: SPR reads the build-up and loss of mass on a sensor chip optically.
Experiment [4] addresses Bacillus thuringiensis subsp. israelensis Cry4Ba toxin (Bacillus thuringiensis subsp. israelensis). The experiment in a line: SPR.

Sequence of Bacillus thuringiensis subsp. israelensis Cry4Ba toxin (Bacillus thuringiensis subsp. israelensis) (P05519 whole entry): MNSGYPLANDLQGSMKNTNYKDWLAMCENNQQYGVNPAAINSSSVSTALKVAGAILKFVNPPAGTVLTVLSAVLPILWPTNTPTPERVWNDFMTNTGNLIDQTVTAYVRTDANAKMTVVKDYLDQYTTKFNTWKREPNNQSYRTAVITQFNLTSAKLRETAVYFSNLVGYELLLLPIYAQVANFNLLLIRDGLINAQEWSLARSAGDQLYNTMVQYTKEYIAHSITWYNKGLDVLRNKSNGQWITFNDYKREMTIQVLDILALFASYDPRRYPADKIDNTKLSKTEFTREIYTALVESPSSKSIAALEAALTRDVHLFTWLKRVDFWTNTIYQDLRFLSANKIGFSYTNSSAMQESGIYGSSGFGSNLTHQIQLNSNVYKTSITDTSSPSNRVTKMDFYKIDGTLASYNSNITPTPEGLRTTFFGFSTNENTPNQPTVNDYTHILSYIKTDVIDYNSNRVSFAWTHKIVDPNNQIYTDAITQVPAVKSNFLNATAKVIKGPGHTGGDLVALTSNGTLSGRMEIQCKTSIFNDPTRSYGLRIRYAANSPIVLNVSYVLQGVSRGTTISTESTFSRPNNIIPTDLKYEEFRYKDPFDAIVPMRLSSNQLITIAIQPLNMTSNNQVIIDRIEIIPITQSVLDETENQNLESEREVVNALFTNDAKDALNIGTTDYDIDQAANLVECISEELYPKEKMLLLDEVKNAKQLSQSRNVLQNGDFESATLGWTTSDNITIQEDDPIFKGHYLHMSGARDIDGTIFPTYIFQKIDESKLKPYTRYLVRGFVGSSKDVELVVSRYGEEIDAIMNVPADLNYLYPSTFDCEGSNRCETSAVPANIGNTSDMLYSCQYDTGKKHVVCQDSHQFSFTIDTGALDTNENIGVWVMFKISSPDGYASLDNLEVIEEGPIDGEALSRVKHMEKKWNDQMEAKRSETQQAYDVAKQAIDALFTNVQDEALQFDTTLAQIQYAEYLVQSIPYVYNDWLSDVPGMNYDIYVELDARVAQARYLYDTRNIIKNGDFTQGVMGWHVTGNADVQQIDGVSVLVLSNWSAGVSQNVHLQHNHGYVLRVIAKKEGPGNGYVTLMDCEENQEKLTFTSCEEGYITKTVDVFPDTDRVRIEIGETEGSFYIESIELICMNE

As a reminder, the Kd is a measure of binding affinity in units of concentration. A low value points to a tighter complex. In general, koff refers to a measure of how fast the partners let go of each other. Lower therefore signals slow dissociation. For the substance “Aedes aegypti cadherin receptor fragment CR7–11 (cadherin repeats 7–11) (domain or fragment)”, the Kd came out at 0.0148 µM in experiment [1], 0.135 µM in experiment [2] and 0.154 µM in experiment [4]. The dissociation rate constant (koff) in experiment [3] turned out to be 0.00252 s⁻¹; in experiment [4], 0.00203 s⁻¹.
